The Kd is a measure of binding affinity in units of concentration. Low readings indicate tighter binding, high ones weaker binding.

Kd data for two substances are collected here from paper PMC6152455.

Experiment [1] deals with Human CD16a/FcγRIIIa 158F (human) (UniProt P08637). Kind of experiment: SPR. In general terms: Surface plasmon resonance follows binding to a sensor surface in real time, without labels.
Experiment [2] deals with Human CD16a/FcγRIIIa 158V (human). Kind of experiment: SPR.
Human CD16a/FcγRIIIa 158V (human), sequence (P08637 17-208): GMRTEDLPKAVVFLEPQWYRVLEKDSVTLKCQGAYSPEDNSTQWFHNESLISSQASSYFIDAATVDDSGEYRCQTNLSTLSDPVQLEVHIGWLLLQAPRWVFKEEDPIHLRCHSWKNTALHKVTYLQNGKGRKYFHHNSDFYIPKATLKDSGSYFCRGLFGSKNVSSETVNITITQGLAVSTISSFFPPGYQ

“P-mab (in-house made pertuzumab biosimilar) (antibody)”: the values for the dissociation constant (Kd) in experiment [1] and in experiment [2] were 2710 nM and 818 nM, respectively.
“T-mab (in-house made trastuzumab biosimilar) (antibody)”: the Kd in experiment [1] is 1630 nM; in experiment [2] it was 311 nM.
